Paper PMC8160216

Target: human M3R-mCit (muscarinic M3 receptor, C-terminally mCitrine-labeled) (human) (UniProt P20309)
Assay: FRET or BRET; single permeabilized HEK293T cells (saponin), nucleotides washed out; FRET between M3R-mCitrine and mTurquoise2-Gγ2 of the co-expressed G protein; 10 µM acetylcholine for 1 min, 2 min washout, twice; final GTPγS to induce full dissociation; stability of the complex as AUC of the normalized trace after agonist withdrawal; room temperature, internal buffer pH 7.35

UniProt P20309, sequence (P20309 whole entry): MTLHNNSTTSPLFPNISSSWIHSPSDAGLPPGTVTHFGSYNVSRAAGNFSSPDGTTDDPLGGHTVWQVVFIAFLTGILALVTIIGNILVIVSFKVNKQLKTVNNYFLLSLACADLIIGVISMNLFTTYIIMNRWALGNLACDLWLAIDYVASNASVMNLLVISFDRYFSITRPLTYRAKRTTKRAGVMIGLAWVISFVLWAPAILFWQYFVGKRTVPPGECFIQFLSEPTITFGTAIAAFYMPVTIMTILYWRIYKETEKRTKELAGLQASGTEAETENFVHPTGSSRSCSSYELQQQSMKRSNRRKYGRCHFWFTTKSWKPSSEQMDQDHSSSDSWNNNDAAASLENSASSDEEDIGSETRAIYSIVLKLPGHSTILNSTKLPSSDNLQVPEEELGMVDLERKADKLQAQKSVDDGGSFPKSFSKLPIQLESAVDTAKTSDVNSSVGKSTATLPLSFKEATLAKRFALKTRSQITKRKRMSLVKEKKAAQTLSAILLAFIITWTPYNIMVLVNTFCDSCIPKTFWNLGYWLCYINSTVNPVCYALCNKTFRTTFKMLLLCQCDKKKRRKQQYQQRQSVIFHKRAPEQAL

| reduction of the AUC of dissociation relative to Gq | faster dissociation relative to Gq | Substance |
| --- | --- | --- |
| < 5% |  | GqoC11 (Gαq chimera with the C-terminal part of the α5 helix of Gαo, with Gβ1 and mTurq2-Gγ2) (from UniProt P21279 1-348; P59215 344-354; P62873 1-340; P63212 1-71) (complex) |
|  | < 10% | GqoN + C11 (Gαq chimera with the N-terminus and the last 11 amino acids of Gαo, with Gβ1 and mTurq2-Gγ2) (from UniProt P59215 344-354; P62873 1-340; P63212 1-71) (complex) |
